Target: pxEBN4-ACE2-AAA-His (human) (UniProt Q9BYF1)

| Substance | Kd |
| --- | --- |
| SA, Beta, pxENB9-FLS-B.1.351 (from UniProt P0DTC2 15-1213) (ligand) | 1.57 nM |
| UK, Alpha, pxENB9-FLS (from UniProt P0DTC2 15-1213) (ligand) | 0.00116 nM |
